B1: 42G9.HL scFv-Fc protein (Fc fusion)
chain: QVTLKESGPVLLKPTETLTLTCTVSGFSLSNPRMGVSWIRQPPGKALEWFAHIFSTDEKSLKLSLRSRLTLSKDTSKSQVVLTMTNMAPVDSATYYCARDSSNYEGYFDFWGQGTLVTVSSGGGGSGGGGSGGGGSGGGGSEVVLTQSPATLSVSPGERATLSCRASQSVRSNLAWYQQKSGQAPRLLIYGSTIRATGVPARFSGSGSGTEFTLTISSLQSEDFAVYYCQQYSDWPFTFGPGTKVDIK
notes: HL: heavy-chain variable domain at the N-terminus; not shown: human IgG1 Fc moiety
B2: 32A10.LH scFv-Fc protein (Fc fusion)
chain: EVVMTQSPATLSVSPGERVTLSCRASQSVSSNFAWYQQRPGQAPRLLLYGATTRATGLPGRFSGSGSGTENILTISSLQSEDFAIYFCQQYKDWPFTFGPGSKVDIKGGGGSGGGGSGGGGSGGGGSQVTLKESGPVLVKPTETLTLTCTVSGFSLSNARMGVSWIRQPPGKALEWLAHIFSTDEKSIRRSLRSRLTLSKDTSKSQVVLTMTNMDPVDTATYFCARDSSNYEGYFDYWGQGTLVTVSS
notes: LH: light-chain variable domain at the N-terminus; not shown: human IgG1 Fc moiety
B3: 26B9.LH scFv-Fc protein (Fc fusion)
chain: DIVLTQSPLSLPVTPGEPASISCRSSQSLLHRDGFNYLDWFLQKPGQSPQLLIYLASSRASGVPDRFSGSDSGTDFTLKISRVEAEDVGVYYCMQALQTPITFGQGTRLEIKGGGGSGGGGSGGGGSGGGGSEVQLVESWGVLVKPGGSLRLSCAASGFIFNNAWMSWVRQAPGKGLEWIGRIKSKSDGGTTDYAAPVKDRFTISRDDSKDTLYLQMNGLKTEDTAVYFCTTAPGGPFDYWGQGTLVTVSS
notes: as for B2
B4: 20E12.HL scFv-Fc protein (Fc fusion)
chain: EVNLVESGGGLVKPGGSLRLSCEASGFTFSYAWMSWVRQAPGKGLEWVGRIKSIADGGATDYAAPVRNRFTISRDDSRNTLYLEMHSLKTEDTAVYYCTTIPGNDAFDMWGQGTMVTVSSGGGGSGGGGSGGGGSGGGGSDIVLTQSPLSLSVTPGEPASISCRSSQSLLYSNGKNYLDWFLHKPGQSPQLLIYLGSNRASGVPDRFSGSGSGIDFILKISRVEAEDVGVYYCMQAQQTPITFGQGTRLEIK
notes: as for B1
B5: 32G8.HL scFv-Fc protein (Fc fusion)
chain: EVNLVESGGGLVKPGGSLRLSCEASGFTFSYAWMSWVRQAPGKGLEWVGRIKSITDGGVIDYAAPVRNRCTISRDDSRNTLYLEMHSLKTEDTAVYYCTTIPGNDDFDMWGQGRMVTVSSGGGGSGGGGSGGGGSGGGGSDIVLTQSPLSLSVTPGEPASISCRSSQSLLYSNGKNYLDWFLHKPGQSPQLLIYLGSNRASGVPDRFSGSGSGIDFILKISRVEAEDVGVYYCMQAQQTPITFGQGTRLEIK
notes: as for B1
B6: 42G9.LH scFv-Fc protein (Fc fusion)
chain: EVVLTQSPATLSVSPGERATLSCRASQSVRSNLAWYQQKSGQAPRLLIYGSTIRATGVPARFSGSGSGTEFTLTISSLQSEDFAVYYCQQYSDWPFTFGPGTKVDIKGGGGSGGGGSGGGGSGGGGSQVTLKESGPVLLKPTETLTLTCTVSGFSLSNPRMGVSWIRQPPGKALEWFAHIFSTDEKSLKLSLRSRLTLSKDTSKSQVVLTMTNMAPVDSATYYCARDSSNYEGYFDFWGQGTLVTVSS
notes: as for B2
B7: 26B9.HL scFv-Fc protein (Fc fusion)
chain: EVQLVESWGVLVKPGGSLRLSCAASGFIFNNAWMSWVRQAPGKGLEWIGRIKSKSDGGTTDYAAPVKDRFTISRDDSKDTLYLQMNGLKTEDTAVYFCTTAPGGPFDYWGQGTLVTVSSGGGGSGGGGSGGGGSGGGGSDIVLTQSPLSLPVTPGEPASISCRSSQSLLHRDGFNYLDWFLQKPGQSPQLLIYLASSRASGVPDRFSGSDSGTDFTLKISRVEAEDVGVYYCMQALQTPITFGQGTRLEIK
notes: as for B1
B8: 20B9.LH scFv-Fc protein (Fc fusion)
chain: EIVMTQSPATLSVSPGERATLSCRVSQSIGANLAWYQQKFGQAPRLLIYGASTRATGIPVRFSGGGSGTEFTLTISSLQSEDFAIYSCQQYIYWPFTFGPGTTVDIKGGGGSGGGGSGGGGSGGGGSQVTLKESGPVLVKPTETLTLTCTVSGFSLSNARMGVSWIRQPPGKALEWLGHIFSTDEKSYSTSLRGRITISKDTSRGLVVLTLTNMDPVDTATYYCARDSSNYEGYFDFWGPGFLVTVSS
notes: as for B2
B9: 30D8.HL scFv-Fc protein (Fc fusion)
chain: EVQLVESGGGLVKPGGSLRLSCEASGFTFSDAWMSWVRQAPGKGLEWVGRIKSKTDGGTTDYVVPLNGRFIISRDDSRNTLYLQLNNLKTEDTAVYYCTTVPGSYGYWGQGTLVTVSSGGGGSGGGGSGGGGSGGGGSDIVMTQSPLSLPVTPGEPASISCRSSQSLLHNKRNNYLDWFLQKPGQSPQLLIYLASNRASGVPDRFSGGGSGTDFTLKISRVEAEDVGVYYCMQAQQTPITFGQGTRLEIK
notes: as for B1
B10: C6.HL scFv-Fc protein (Fc fusion)
chain: QVQLVQSGAEVKKPGSSVKVSCKASGDTFSSNAISWVRQAPGQGLEWMGVIIPIFGTADYAQKFQGRVTITADESTSTAYMELSSLRSEDTAVYYCARHTYHEYAGGYYGGAMDPWGQGTLVTVSSGGGGSGGGGSGGGGSGGGGSELQSVLTQPPSASGTPGQRVTISCSGSSSNIGSNYVYWYQQLPGTAPKILIYRNNQRPSGVPDRFSGSKSGTSASLAISGLRSEDEADYYCAAWDDNLSGWVFGTGTKLTVL
notes: as for B1
B11: 20E12.LH scFv-Fc protein (Fc fusion)
chain: DIVLTQSPLSLSVTPGEPASISCRSSQSLLYSNGKNYLDWFLHKPGQSPQLLIYLGSNRASGVPDRFSGSGSGIDFILKISRVEAEDVGVYYCMQAQQTPITFGQGTRLEIKGGGGSGGGGSGGGGSGGGGSEVNLVESGGGLVKPGGSLRLSCEASGFTFSYAWMSWVRQAPGKGLEWVGRIKSIADGGATDYAAPVRNRFTISRDDSRNTLYLEMHSLKTEDTAVYYCTTIPGNDAFDMWGQGTMVTVSS
notes: as for B2
B12: 20B9.HL scFv-Fc protein (Fc fusion)
chain: QVTLKESGPVLVKPTETLTLTCTVSGFSLSNARMGVSWIRQPPGKALEWLGHIFSTDEKSYSTSLRGRITISKDTSRGLVVLTLTNMDPVDTATYYCARDSSNYEGYFDFWGPGFLVTVSSGGGGSGGGGSGGGGSGGGGSEIVMTQSPATLSVSPGERATLSCRVSQSIGANLAWYQQKFGQAPRLLIYGASTRATGIPVRFSGGGSGTEFTLTISSLQSEDFAIYSCQQYIYWPFTFGPGTTVDIK
notes: as for B1
B13: 32A10.HL scFv-Fc protein (Fc fusion)
chain: QVTLKESGPVLVKPTETLTLTCTVSGFSLSNARMGVSWIRQPPGKALEWLAHIFSTDEKSIRRSLRSRLTLSKDTSKSQVVLTMTNMDPVDTATYFCARDSSNYEGYFDYWGQGTLVTVSSGGGGSGGGGSGGGGSGGGGSEVVMTQSPATLSVSPGERVTLSCRASQSVSSNFAWYQQRPGQAPRLLLYGATTRATGLPGRFSGSGSGTENILTISSLQSEDFAIYFCQQYKDWPFTFGPGSKVDIK
notes: as for B1
B14: 14C11.LH scFv-Fc protein (Fc fusion)
chain: EIVMTQSPATLSVSPGERATLSCRASQSVSNNLAWYQQKPGQAPRLLIYGASTRATGVPARFSGSDSGTEFSLTISSLQSEDFAVYFCQQYKDWPFTFGPGTKVEIKGGGGSGGGGSGGGGSGGGGSQVTLKESGPVLVKPTETLTLTCTVSGFSLNNARMGVSWIRQPPGKALEWFAHIFSTDEKSFRTSLRSRLTLSKDTSKSQVVLTMTNMDPVDTATYYCARDSSNYEGYFDYWGQGILVTVSS
notes: as for B2
B15: 14C11.HL scFv-Fc protein (Fc fusion)
chain: QVTLKESGPVLVKPTETLTLTCTVSGFSLNNARMGVSWIRQPPGKALEWFAHIFSTDEKSFRTSLRSRLTLSKDTSKSQVVLTMTNMDPVDTATYYCARDSSNYEGYFDYWGQGILVTVSSGGGGSGGGGSGGGGSGGGGSEIVMTQSPATLSVSPGERATLSCRASQSVSNNLAWYQQKPGQAPRLLIYGASTRATGVPARFSGSDSGTEFSLTISSLQSEDFAVYFCQQYKDWPFTFGPGTKVEIK
notes: as for B1
B16: 30D8.LH scFv-Fc protein (Fc fusion)
chain: DIVMTQSPLSLPVTPGEPASISCRSSQSLLHNKRNNYLDWFLQKPGQSPQLLIYLASNRASGVPDRFSGGGSGTDFTLKISRVEAEDVGVYYCMQAQQTPITFGQGTRLEIKGGGGSGGGGSGGGGSGGGGSEVQLVESGGGLVKPGGSLRLSCEASGFTFSDAWMSWVRQAPGKGLEWVGRIKSKTDGGTTDYVVPLNGRFIISRDDSRNTLYLQLNNLKTEDTAVYYCTTVPGSYGYWGQGTLVTVSS
notes: as for B2

What was measured:
[1] = target: T1, 8-histidine tagged recombinant wild-type protein EGFRwt (UniProt P00533 25-645, limits assumed); assay: SPR, captured by anti-human Fc, 25 C
T1 construct: not shown: 8-histidine tag

[2] = target: T2, Monomeric 8-histidine tagged human EGFRvIII extracellular domain (human, UniProt P00533 298-645); assay: SPR, scFv-Fc captured by anti-human Fc, 37 C
T2 construct: Analyte in all SPR assays; not shown: 8-histidine tag
Description: The scFv fragment was then fused to human IgG1 Fc moiety to facilitate recombinant expression and purification. Affinities of the scFv-Fc fusion proteins were measured at 37° C. on a surface plasmon resonance Biacore™ T200 biosensor equipped with an anti-human Fc coupled CM4 sensor chip (GE Healthcare Inc., Piscataway, N.J.) as described above. scFv-Fc proteins were captured by anti-human Fc. Monomeric 8-histidine tagged human EGFRvIII extracellular domain was then injected as the analyte at 10-fold dilution series starting at 1000 nM.

Row | Binder | binding result [1] | Kd [2] [nM] | koff [2] [s⁻¹] | kon [2] [M⁻¹ s⁻¹]
1 | B1 | no binding (tested: 1000 nM) | 18.8 | 0.0011 | 56000
2 | B2 | no binding (tested: 1000 nM) | 29.8 | 0.0012 | 41000
3 | B3 | no binding (tested: 1000 nM) | 494 | 0.034 | 69000
4 | B4 | no binding (tested: 1000 nM) | 894 | 0.019 | 21000
5 | B5 | no binding (tested: 1000 nM) | 1490 | 0.013 | 8700
6 | B6 | no binding (tested: 1000 nM) | 22.1 | 0.00088 | 40000
7 | B7 | no binding (tested: 1000 nM) | 705 | 0.04 | 57000
8 | B8 | no binding (tested: 1000 nM) | 82.7 | 0.0025 | 30000
9 | B9 | no binding (tested: 1000 nM) | 225 | 0.053 | 230000
10 | B10 | no binding (tested: 1000 nM) | 1060 | 0.02 | 19000
11 | B11 | no binding (tested: 1000 nM) | 932 | 0.015 | 16000
12 | B12 | no binding (tested: 1000 nM) | 73.8 | 0.0018 | 24000
13 | B13 | no binding (tested: 1000 nM) | 24.5 | 0.0012 | 47000
14 | B14 | no binding (tested: 1000 nM) | 136 | 0.0065 | 48000
15 | B15 | no binding (tested: 1000 nM) | 104 | 0.0043 | 42000
16 | B16 | no binding (tested: 1000 nM) | 349 | 0.038 | 110000

— patent US20190144550A1 (Pfizer, published 2019)
